Laboratory results from patent US20160082074A1.

What was measured:
calcineurin = assay: cell-based or functional assay
[1] = biological target: human cyclophilin A (human) (UniProt P62937); assay: cell-based or functional assay
human cyclophilin A (human), sequence (P62937 whole entry): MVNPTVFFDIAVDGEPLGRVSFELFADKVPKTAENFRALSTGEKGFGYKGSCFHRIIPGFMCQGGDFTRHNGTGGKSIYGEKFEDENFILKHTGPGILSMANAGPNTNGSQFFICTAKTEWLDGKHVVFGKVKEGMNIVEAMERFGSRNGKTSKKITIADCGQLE

Row | Substance | In vitro inhibition CnA IC50 (calcineurin) [nM] | In vitro inhibition human CypA IC50 [nM] (protease-coupled PPIase assay) [1]
1 | CypA/CsA complex | 50 | –
2 | cyclosporin A (peptide) | – | 9.1
